Values of other authors as cited in patent publication US12186373B2, “Compositions in the form of an injectable aqueous solution comprising amylin, an amylin agonist receptor or an amylin analogue and a co-polyamino acid” (ADOCIA, priority 2017, dated 2025).

Settings: acidic pH

**Q.** For “amylin: peptide of 37 amino acids which is stored and co-secreted with insulin (KCNTATCATQRLANFLVHSSNNFGAILSSTNVGSNTY; Islet amyloid polypeptide; UniProt P10997 34-70, looked up)”, which “time for which amylin is stable” value is on record?
**A.** Its value is “about fifteen minutes”.
